Assay results reported in US20200003757A1, “METHOD OF IDENTIFYING AGENTS THAT AFFECT MATURATION, SURVIVAL AND MYELINATION” (KADIMASTEM, LTD., priority 2011, published 2020).

Columns and labels:
hES-OPC = test: Differentiation assay; dose response of Noggin on hES-OPC (O4/DAPI staining, Cellomics neuronal profiling); type: cell-based, human
Procedure: 5000 hES-OPC were seeded in each well of Matrigel and PDL-coated 96 well black clear plates (CI-3603, Corning). The medium used for the experiment comprised DMEM/F12 with 0.5% (v/v) N2 supplement (Invitrogen), 1% (v/v) B27 supplement, Glutamax and 100 U/ml penicillin and 100 μg/ml streptomycin (Biological Industries, IL). The cells were deprived from growth factors 24 hours prior to seeding. 12 hours following seeding, increasing doses of Noggin (Preprotech, Israel) were supplemented to the media for the ten days of differentiation. The Noggin doses ranged between 15 nM to 0.015 nM (450 ng/ml to 0.45 ng/ml) with 3.16 fold dilutions (square root of 10) in the presence of 0.1% DMSO and 50 μg/ml Vitamin C. Samples without Noggin in the presence of 0.1% DMSO and 50 μg/ml Vitamin C served as negative control. The media was changed every other day by replenishing ⅔ of the media. On day ten, the wells were fixed using 4% paraformaldehyde (PFA) for further O4 and Dapi staining.
Cells were fixed using 4% paraformaldehyde (PFA), washed with PBS and kept at 4° C. before staining. Non-specific staining was blocked with normal goat serum (5% w/v in PBS) for 30 minutes at RT. Primary mouse monoclonal (mMc) and rabbit polyclonal antibodies, diluted in 1% goat serum, were as described in Table 2, herein below. All staining was followed by the nuclear fluorescent dye DAPI (Sigma, 0.05 μg/ml). All coverslips were mounted in Mowiol (Calbiochem, La Jolla, Calif.). An Olympus IX-70 FLA microscope with a DVC-1310C digital camera (DVC, Austin, Tex.) was used and images processed with Photoshop and analyzed with Image-Pro-Plus software (Media Cybernetics, Silver Spring, Md.) to measure Integrated Optic Density (IOD) of color-specific pixels and MBP positive fiber length. […]
BMP signaling negatively regulates oligodendrocyte lineage development, and it has been shown that Noggin, an inhibitor of BMP signaling, promotes the differentiation of ES-derived oligodendrocytes. As a proof of concept that effects of drugs on oligodendrocyte differentiation can be quantified, the inventors searched for the optimal concentration of Noggin to be used to promote differentiation. […] Nuclear DNA staining with DAPI was used to quantify the cell number per field, and oligodendrocytes were characterized by staining with O4. […] Similarly, O4 positive processes (green) were counted and measured only if attached to O4 cell body. Places where one process becomes two were counted as branch point (FIGS. 3D-E, yellow circles). The numbers of processes, their lengths, and the number of branch points per O4 positive cell body were counted. […] Thus, it may be concluded that the present assay is capable of quantifying the effect of Noggin. […]

human oligodendrocytes = test: Human oligodendrocytes and hESC-OPC survival assay (dead cell labeling and O4 labeling); type: cell-based; conditions: 14 days in culture
Procedure: In order to evaluate the survival of human oligodendrocytes or its progenitor cells in culture, a specific dead cell labeling (Live/dead viability/cytotoxicity kit for mammalian cells, Invitrogen, molecular probes, L3223) was used. A culture of differentiated oligodendrocytes and oligodendrocytes progenitor culture sorted by O4+ or CD140+ MACS sorting respectively were obtained. The effect of recombinant human IFN-Y (R&D systems, Biotest, 285-IF-100) was tested on oligodendrocytes survival. Following 14 days in culture the cells were labeled with dead cell labeling (Ethidium heterodimer 1-red labeling) and O4 labeling (green). […] Such an assay gives complementary results on the effect of tested compound on oligodendrocytes survival.

B1: Noggin: an inhibitor of BMP signaling (Preprotech, Israel) (protein, UniProt Q13253 28-232, looked up)
Noggin: QHYLHIRPAPSDNLPLVDLIEHPDPIFDPKEKDLNETLLRSLLGGHYDPGFMATSPPEDRPGGGGGAAGGAEDLAELDQLLRQRPSGAMPSEIKGLEFSEGLAQGKKQRLSKKLRRKLQMWLWSQTFCPVLYAWNDLGSRFWPRYVKVGSCFSKRSCSVPEGMVCKPSKSVHLTVLRWRCQRRGGQRCGWIPIQYPIISECKCSC
morphology of O4 positive OLs versus absence of Noggin (hES-OPC; Noggin added after growth factor removal, FIGS. 3A-C): stimulates the emergence of OLs with longer and multiple processes | number of O4 positive cell per well (hES-OPC; ten days differentiation with noggin treatment): not changed | process numbers per cell, total process length per well, number of branch points per cell (hES-OPC; ten days differentiation, O4 positive cells, serial dilutions of Noggin): correlated with Noggin concentration | EC50 (hES-OPC; ten days without growth factors, O4 staining, triplicate, FIG. 3F, read-out: EC50 (50% of the maximal effect), curve generated by integrating process numbers per cell, total process length per well and number of branch points per cell): 0.157 nM

B2: IFN-Y: recombinant human IFN-Y (R&D systems, Biotest, 285-IF-100) (protein, UniProt P01579 24-161, looked up)
Interferon gamma: QDPYVKEAENLKKYFNAGHSDVADNGTLFLGILKNWKEESDRKIMQSQIVSFYFKLFKNFKDDQSIQKSVETIKEDMNVKFFNSNKKKRDDFEKLTNYSVTDLNVQRKAIHELIQVMAELSPAAKTGKRKRSQMLFRG
percentage of dead cells (human oligodendrocytes; Ethidium heterodimer 1 labeling, FIG. 12E): increased the percentage of dead cells | number of differentiated oligodendrocytes (O4+ cells) (human oligodendrocytes; O4 labeling, FIG. 12F): decreased the number of differentiated oligodendrocytes
